From doi:10.1101/2024.04.30.591959, “Structural insights into human propionyl-CoA carboxylase (PCC) and 3-methylcrotonyl-CoA carboxylase (MCC)” (bioRxiv, 2024)

T1: human propionyl-CoA carboxylase α subunit (human (endogenous in Expi 293F), UniProt P05165 53-728, biotin covalently linked to K694 (AMKM motif of the BCCP domain))
T1 construct: Propionyl-CoA carboxylase α subunit (PCCα), human, endogenous; holds the BC, BT and BCCP domains; Purified as part of the endogenous α6β6 PCC holoenzyme, in a mixture with the other biotin-dependent carboxylases; also called PCCα; α subunit of PCC; source: endogenous, Expi 293F cells, purified (Strep-Tactin XT resin, size-exclusion chromatography)
T1 sequence (looked up): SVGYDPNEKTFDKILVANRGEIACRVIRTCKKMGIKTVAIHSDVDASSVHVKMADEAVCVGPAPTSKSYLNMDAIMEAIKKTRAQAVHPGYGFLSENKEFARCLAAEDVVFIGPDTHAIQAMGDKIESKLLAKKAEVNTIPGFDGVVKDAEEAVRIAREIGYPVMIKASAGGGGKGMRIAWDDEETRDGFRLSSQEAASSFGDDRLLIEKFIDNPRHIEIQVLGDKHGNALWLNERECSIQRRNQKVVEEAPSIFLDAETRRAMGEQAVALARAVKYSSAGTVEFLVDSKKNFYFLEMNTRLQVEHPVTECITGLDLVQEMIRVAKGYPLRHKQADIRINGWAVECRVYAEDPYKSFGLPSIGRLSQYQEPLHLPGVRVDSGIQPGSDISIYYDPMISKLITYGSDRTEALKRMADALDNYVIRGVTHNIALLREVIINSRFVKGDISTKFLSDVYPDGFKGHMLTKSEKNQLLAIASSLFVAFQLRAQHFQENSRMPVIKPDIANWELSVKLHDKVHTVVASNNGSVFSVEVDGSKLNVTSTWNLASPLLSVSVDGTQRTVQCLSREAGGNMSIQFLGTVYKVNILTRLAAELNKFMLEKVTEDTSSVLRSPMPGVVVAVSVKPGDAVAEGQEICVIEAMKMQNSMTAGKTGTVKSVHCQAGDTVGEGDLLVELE

T2: human 3-methylcrotonyl-CoA carboxylase α subunit (human (endogenous in Expi 293F), UniProt Q96RQ3 42-725, biotin covalently linked to K681 (AMKM motif of the BCCP domain))
T2 construct: 3-methylcrotonyl-CoA carboxylase α subunit (MCCα), human, endogenous; holds the BC, BT and BCCP domains; Purified as part of the endogenous α6β6 MCC holoenzyme, in a mixture with the other biotin-dependent carboxylases; also called MCCα; α subunit of MCC; source: endogenous, Expi 293F cells, purified (Strep-Tactin XT resin, size-exclusion chromatography)
T2 sequence (looked up): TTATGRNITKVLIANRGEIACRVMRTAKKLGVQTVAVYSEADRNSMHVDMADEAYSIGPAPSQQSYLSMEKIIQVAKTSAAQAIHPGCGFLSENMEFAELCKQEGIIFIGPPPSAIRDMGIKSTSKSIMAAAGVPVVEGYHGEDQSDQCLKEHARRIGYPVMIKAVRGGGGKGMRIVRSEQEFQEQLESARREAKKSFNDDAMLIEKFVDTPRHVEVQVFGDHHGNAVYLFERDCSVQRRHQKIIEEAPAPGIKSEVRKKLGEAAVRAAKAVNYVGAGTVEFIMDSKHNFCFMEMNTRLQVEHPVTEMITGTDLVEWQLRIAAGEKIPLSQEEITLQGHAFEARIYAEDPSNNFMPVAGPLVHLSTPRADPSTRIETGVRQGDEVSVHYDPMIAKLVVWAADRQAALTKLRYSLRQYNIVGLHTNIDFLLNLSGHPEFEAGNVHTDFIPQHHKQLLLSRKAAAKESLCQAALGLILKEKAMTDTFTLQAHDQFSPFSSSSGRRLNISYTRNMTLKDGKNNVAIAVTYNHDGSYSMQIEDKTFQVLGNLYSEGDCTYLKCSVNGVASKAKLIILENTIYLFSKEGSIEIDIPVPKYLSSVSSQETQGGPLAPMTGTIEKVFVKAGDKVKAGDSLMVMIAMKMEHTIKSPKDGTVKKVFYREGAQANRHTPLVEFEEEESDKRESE


Assays:
Experiment in all cases: cryo-EM structure; endogenous holoenzymes co-purified from Expi 293F cells as a mixture of biotin-dependent carboxylases; HBS buffer (20 mM HEPES, pH 7.4, 150 mM NaCl); apo, or pre-incubated with 25 mM NaHCO3, 10 mM MgCl2 and 10 mM propionyl-CoA or acetyl-CoA, 10 mM ATP added before freezing
[1] = target: T1, human propionyl-CoA carboxylase α …; conditions: both partners purified
[2] = target: the molecule itself
[3] = target: T2, human 3-methylcrotonyl-CoA carboxylase …; conditions: both partners purified

Binder | binding result [1] | stoichiometry N [2] | binding result [3]
human propionyl-CoA carboxylase β subunit (natural protein, human (endogenous in Expi 293F), UniProt P05166 29-539, looked up, Propionyl-CoA carboxylase β subunit (PCCβ), human, endogenous; CT domain (CT-N and CT-C subdomains); Co-purified with the biotinylated α subunit as the endogenous α6β6 PCC holoenzyme; also called PCCβ; β subunit of PCC; source: endogenous, Expi 293F cells, purified (Strep-Tactin XT resin, size-exclusion chromatography)) CSQATSVNERIENKRRTALLGGGQRRIDAQHKRGKLTARERISLLLDPGSFVESDMFVEHRCADFGMAADKNKFPGDSVVTGRGRINGRLVYVFSQDFTVFGGSLSGAHAQKICKIMDQAITVGAPVIGLNDSGGARIQEGVESLAGYADIFLRNVTASGVIPQISLIMGPCAGGAVYSPALTDFTFMVKDTSYLFITGPDVVKSVTNEDVTQEELGGAKTHTTMSGVAHRAFENDVDALCNLRDFFNYLPLSSQDPAPVRECHDPSDRLVPELDTIVPLESTKAYNMVDIIHSVVDEREFFEIMPNYAKNIIVGFARMNGRTVGIVGNQPKVASGCLDINSSVKGARFVRFCDAFNIPLITFVDVPGFLPGTAQEYGGIIRHGAKLLYAFAEATVPKVTVITRKAYGGAYDVMSSKHLCGDTNYAWPTAEIAVMGAKGAVEIIFKGHENVEAAQAEYIEKFANPFPAAVRGFVDDIIQPSSTRARICCDLDVLASKKVQRPWRKHANIPL | binds |  | 
human 3-methylcrotonyl-CoA carboxylase β subunit (natural protein, human (endogenous in Expi 293F), UniProt Q9HCC0 23-563, looked up, 3-methylcrotonyl-CoA carboxylase β subunit (MCCβ), human, endogenous; CT domain (CT-N and CT-C subdomains); Co-purified with the biotinylated α subunit as the endogenous α6β6 MCC holoenzyme; also called MCCβ; β subunit of MCC; source: endogenous, Expi 293F cells, purified (Strep-Tactin XT resin, size-exclusion chromatography)) YHGDSVASLGTQPDLGSALYQENYKQMKALVNQLHERVEHIKLGGGEKARALHISRGKLLPRERIDNLIDPGSPFLELSQFAGYQLYDNEEVPGGGIITGIGRVSGVECMIIANDATVKGGAYYPVTVKKQLRAQEIAMQNRLPCIYLVDSGGAYLPRQADVFPDRDHFGRTFYNQAIMSSKNIAQIAVVMGSCTAGGAYVPAMADENIIVRKQGTIFLAGPPLVKAATGEEVSAEDLGGADLHCRKSGVSDHWALDDHHALHLTRKVVRNLNYQKKLDVTIEPSEEPLFPADELYGIVGANLKRSFDVREVIARIVDGSRFTEFKAFYGDTLVTGFARIFGYPVGIVGNNGVLFSESAKKGTHFVQLCCQRNIPLLFLQNITGFMVGREYEAEGIAKDGAKMVAAVACAQVPKITLIIGGSYGAGNYGMCGRAYSPRFLYIWPNARISVMGGEQAANVLATITKDQRAREGKQFSSADEAALKEPIIKKFEEEGNPYYSSARVWDDGIIDPADTRLVLGLSFSAALNAPIEKTDFGIFRM |  | 6 | binds
